B1: YBR102C_1 (protein, UniProt P38261 1-753, looked up)
Exocyst complex component …: MVEFSLKKARNNWKHVKKSASSPAKQKTPPSPAKPKQKTKKNPYSDLKDPATSYTLPTINARERSRVATSMQRRLSIHNTNYAPPTLDYSMPLPDMPNMIVPNDNVDSSHNNSSFTTENESVSSKGPSNSLNLSTADLSLNDSSYNKVPARSAMRNTVNPSGSNDPFNNSTSLRKMLANPHFNAKDFVHDKLGNASAITIDKFTSNLTDLSIQVQEEVKLNINKSYNEIMTVNNDLNVAMLELKRVRANINDLNEVLDQCTKIAEKRLQLQDQIDQERQGNFNNVESHSNSPALLPPLKAGQNGNLMRRDRSSVLILEKFWDTELDQLFKNVEGAQKFINSTKGRHILMNSANWMELNTTTGKPLQMVQIFILNDLVLIADKSRDKQNDFIVSQCYPLKDVTVTQEEFSTKRLLFKFSNSNSSLYECRDADECSRLLDVIRKAKDDLCDIFHVEEENSKRIRESFRYLQSTQQTPGRENNRSPNKNKRRSMGGSITPGRNVTGAMDQYLLQNLTLSMHSRPRSRDMSSTAQRLKFLDEGVEEIDIELARLRFESAVETLLDIESQLEDLSERISDEELMLLNLISLKIEQRREAISSKLSQSILSSNEIVHLKSGTENMIKLGLPEQALDLFLQNRSNFIQDLILQIGSVDNPTNYLTQLAVIRFQTIKKTVEDFQDIFKELGAKISSILVDWCSDEVDNHFKLIDKQLLNDEMLSPGSIKSSRKQIDGLKAVGLDFVYKLDEFIKKNSDKIR
B2: YOR042W_1 (protein, UniProt Q08412 1-411, looked up)
Ubiquitin-binding protein CUE5: MEEKEGIKDSSLLEKSNVPESINEDISKTTDVDLNSDGKKDNDTSAKDGTPKVEEKVNKSSGIDEDEVVTPAEDAKEEEEEHPPLPARRKSEEEPSKENPILQELKDAFPNLEEKYIKAVIIASQGVLSPAFNALLFLSDPESGKDIELPTQPVRKNPEAPARRRQTQLEQDELLARQLDEQFNSSHSRRRNRDRATRSMHEQRRRRHNPNEREQHHEDSEEEDSWSQFVEKDLPELTDRAGRSLQDTANKVSNWISDAYRRNFASGNEQNDNQHGHQDQQEWEPEIVDLSQGGKNSRPQQPERRRFNSFGVQVGDDSLESHGITLHNEDGFEDDEDVPPQLPTRTKSGESTGKVVAETTYIDTPDTETKKKWQPLPPEPLDTTPTKVNAVSRNKKNPDEDEFLINSDDEM
B3: YNL243W_1 (protein, UniProt P33338 1-968, looked up)
Protein SLA2: MSRIDSDLQKALKKACSVEETAPKRKHVRACIVYTWDHQSSKAVFTTLKTLPLANDEVQLFKMLIVLHKIIQEGHPSALAEAIRDRDWIRSLGRVHSGGSSYSKLIREYVRYLVLKLDFHAHHRGFNNGTFEYEEYVSLVSVSDPDEGYETILDLMSLQDSLDEFSQIIFASIQSERRNTECKISALIPLIAESYGIYKFITSMLRAMHRQLNDAEGDAALQPLKERYELQHARLFEFYADCSSVKYLTTLVTIPKLPVDAPDVFLINDVDESKEIKFKKREPSVTPARTPARTPTPTPPVVAEPAISPRPVSQRTTSTPTGYLQTMPTGATTGMMIPTATGAANAIFPQATAQMQPDFWANQQAQFANEQNRLEQERVQQLQQQQAQQELFQQQLQKAQQDMMNMQLQQQNQHQNDLIALTNQYEKDQALLQQYDQRVQQLESEITTMDSTASKQLANKDEQLTALQDQLDVWERKYESLAKLYSQLRQEHLNLLPRFKKLQLKVNSAQESIQKKEQLEHKLKQKDLQMAELVKDRDRARLELERSINNAEADSAAATAAAETMTQDKMNPILDAILESGINTIQESVYNLDSPLSWSGPLTPPTFLLSLLESTSENATEFATSFNNLIVDGLAHGDQTEVIHCVSDFSTSMATLVTNSKAYAVTTLPQEQSDQILTLVKRCAREAQYFFEDLMSENLNQVGDEEKTDIVINANVDMQEKLQELSLAIEPLLNIQSVKSNKETNPHSELVATADKIVKSSEHLRVDVPKPLLSLALMIIDAVVALVKAAIQCQNEIATTTSIPLNQFYLKNSRWTEGLISAAKAVAGATNVLITTASKLITSEDNENTSPEQFIVASKEVAASTIQLVAASRVKTSIHSKAQDKLEHCSKDVTDACRSLGNHVMGMIEDDHSTSQQQQPLDFTSEHTLKTAEMEQQVEILKLEQSLSNARKRLGEIRRHAYYNQDDD
B4: YER008C_1 (protein, UniProt P33332 1-1336, looked up)
Exocyst complex component SEC3: MRSSKSPFKRKSHSRETSHDENTSFFHKRTISGSSAHHSRNVSQGAVPSSAPPVSGGNYSHKRNVSRASNSSQTSNFLAEQYERDRKAIINCCFSRPDHKTGEPPNNYITHVRIIEDSKFPSSRPPPDSKLENKKKRLLILSAKPNNAKLIQIHKARENSDGSFQIGRTWQLTELVRVEKDLEISEGFILTMSKKYYWETNSAKERTVFIKSLITLYIQTFEGHVPELVNWDLSLFYLDERSYQRAVITNRPGSVSPIKSPTSNFTTNTTQSVGSVPFSAPTERTRRSETESVNPVSTPASVEYHAGMKSLNKAPYSSNSTLNEVNKRYELEQQQQQEEAELRRLEEQKRLQLQKENEMKRLEEERRIKQEERKRQMELEHQRQLEEEERKRQMELEAKKQMELKRQRQFEEEQRLKKERELLEIQRKQREQETAERLKKEEQEALAKKEEEEKSKRNKVDNESYTQEINGKVDNLLEDLNAVLAEETETTPTMQNGTYVPERSTARAHDQLKKPLNIAKVESLGGSDLNDSISLSDEIAGLNTSNLSGEDQDEKNDLSFEKGDEVRYSNNFEGEAPHVYHEVSIIQEEAPAVSQKLILPEENNESEALIESKEEIKTMENIDDEVLLEILTDINWSIEDDADSMIERIDLRLAETEYLFNQNLLSLQKIGPNIRPYEDKVNDECHRIIPTLSLFLMEMSNFSNDIENVESQDNGLQVESANKKLLWNTLDELLKTVSLDEISLNQLLECPIREKNLPWMENQLNLLLKAFQAIGSDGNEVEYNLREISGLKQRLQFYEKVTKIFLNRIVEEMQKKFSNIRGQDISHDQMIRILTTLLIFSPLILFCKEISQKSYQAIVENWNVSIQPVYMELWTKKISQLQGIDTNDEKMNELSLSQLLNEWDTFRKERKTNDINPVFKNSFSLLTECLQTMRQECIVYQNFVEVFFHISSKHNFEEYIKHFNDPDAPPILLDTVKVMQSDREAAVIETQLVSRIFQPIVTRLSSYFVELVKAEPTVAPALTFYLENEIKSLESSNHEFLLSAVTRMYTQIKQVWSDNVEEQVLHFERISNATTNGEILPGILDLPVGLKNSEDLFQFAKRSMDIKDTDEGYESIELMNSSFRKLSIAATRSITHKEVNSSINPNLSDTAALNNDYMETISLLVNSNWLTEMLSMLNFNKDGIFDTSLQNVKKVFDVEKESYASFLLRDTMPKLTAFVYGVSNIIENTNNVNMTNPSRWAAYSRQNLENILLAYTSHEIETLVKRLHTHMVNDFGYHQENAINNVLCDKLWSCIQGQTVSLYLKLYTVIDKHYRGTNIRFTKNDIISAFEEYKNA
B5: YCR030C_1 (protein, UniProt P25623 1-870, looked up)
Suppressor of yeast profilin …: MTEQRTKYADSILTTKSPYEATETIRIRLSQVKLLNKDFYLLFKELANLKRNYAQQLRKIIAENEDITKILNAQMIESNVLTPQEMSAFRFNSLGELRNVWDTVIEELKSDLKSSTEYYNTLDQQVVRELKESVENNTSWRESKDLHSKLSKNAASIEHYSKNNENSSHLEEARRQWDQQSPYLFELFETIDYNRLDTLKNCMLRFQTSFSDYLLNTTKECETVMTKFLAFEPQSEIDRFAKDASQYNFQLSSSSKEVVPNNASPASATGARPVSVSNGAANTEREKKSPQKDKRKSAFGNIGHRLASASSSLTHNDLMNNEFSDSTNNSSLKSKKSSHTLRSKVGSIFGRNKTKNKRQQQSSSNSHIQASITETPNNSSTRVSSTATSSIYQKQRRPTYSSSKSNNWTPGEASDTPPLPPHATPKNVDAPVTADTPPAQTFTPSEVPPSTPQQSSPPTAKEPDSSNLPKTVPISISQPPLQPQSKTKPLPVEPASPSISLPTATVDNQPSGQVDSRPLHIRAPALPPSRKQNFIHNRDSQLYDSLPNHGSGATPTSSSLSSIPQERPVSTLSSQITGELRELNPQATGSSTSLVGQSLFQHSSLDTSQFGLNASIAEVLNASFKDGMLQNSQLIGEIALNYLPNSVMNSPLPIGINLRINNGAKFEKVILNQAFIERVAPEEFKVNPSFIDSRTLGAIKYSIKEPIAPIVIHPVWRFESHQASVVLTVKMSPSLPDEISQIVIEDLVVFVNIDGANATSALSKPQGSFSKEKKRITWRFKEPVVLTRNGEGQRLIARFITDGLAHESAKGVITKFTISETDNVALPHSGAGSGITLTCQELDENNPFGGEWLDVNTKRTLTTGNYHGLA
B6: YCR088W_1 (protein, UniProt P15891 2-592, looked up)
Actin-binding protein: ALEPIDYTTHSREIDAEYLKIVRGSDPDTTWLIISPNAKKEYEPESTGSSFHDFLQLFDETKVQYGLARVSPPGSDVEKIIIIGWCPDSAPLKTRASFAANFAAVANNLFKGYHVQVTARDEDDLDENELLMKISNAAGARYSIQTSSKQQGKASTPPVKKSFTPSKSPAPVSKKEPVKTPSPAPAAKISSRVNDNNDDDDWNEPELKERDFDQAPLKPNQSSYKPIGKIDLQKVIAEEKAKEDPRLVQKPTAAGSKIDPSSDIANLKNESKLKRDSEFNSFLGTTKPPSMTESSLKNDDDKVIKGFRNEKSPAQLWAERKAKQNSGNAETKAEAPKPEVPEDEPEGEPDVKDLKSKFEGLAASEKEEEEMENKFAPPPKKSEPTIISPKPFSKPQEPVKAEEAEQPKTDYKKIGNPLPGMHIEADNEEEPEENDDDWDDDEDEAAQPPLPSRNVASGAPVQKEEPEQEEIAPSLPSRNSIPAPKQEEAPEQAPEEEIEEEAEEAAPQLPSRSSAAPPPPPRRATPEKKPKENPWATAEYDYDAAEDNELTFVENDKIINIEFVDDDWWLGELEKDGSKGLFPSNYVSLGN

System: PPIs identified as affected by the SH3 domain deletions
Assay: Liquid DHFR-PCA low-throughput validation of PPIs affected by SH3 deletion (Fig. S1D-E)
Assay type: cell-based, Saccharomyces cerevisiae
Settings: label = prey, liquid DHFR-PCA, prey _1 = lost, _2 = gained in screen
Outline: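 Growth at 30 °C was tracked by OD each 15 min over 72 h in agar-free PCA selection medium, starting at 0.1 OD. Cells were diploids selected after mating, first cultured 48 h with NAT and HPH in synthetic complete MSG medium, pH 6.0.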

Molecule | Ratio (Deletedscore / WTscore) (bait BEM1-1) | Ratio (Deletedscore / WTscore) (bait BEM1-2) | Ratio (Deletedscore / WTscore) (bait RVS167) | Ratio (Deletedscore / WTscore) (bait BBC1) | Ratio (Deletedscore / WTscore) (bait PIN3) | Ratio (Deletedscore / WTscore) (bait BZZ1-1) | Ratio (Deletedscore / WTscore) (bait HOF1) | Ratio (Deletedscore / WTscore) (bait MYO3) | Ratio (Deletedscore / WTscore) (bait MYO5) | Ratio (Deletedscore / WTscore) (bait LSB3)
B1 | 0.5987 | 0.6932 | 0.8234 |  |  |  |  |  |  | 
B2 |  |  |  | 0.4675 | 0.5809 |  |  |  |  | 
B3 | 1.137 | 0.8469 |  | 0.664 | 1.05 | 0.856 | 0.8741 | 0.5927 | 0.7315 | 
B4 | 0.9745 | 0.478 | 0.6394 |  |  |  |  |  |  | 0.7503
B5 | 1.033 | 0.5499 | 0.6932 |  |  |  |  | 0.7978 | 0.5102 | 
B6 | 0.8735 |  |  |  |  |  |  |  |  | 
